# In patent US20130244255A1 (published 2013):
# “And” between values parts separate entries of the source, which are not always exact repeats. Equal values may be shown once.
# T1: Recombinant human GPNMB extra-cellular domain (ECD) with a C-terminus V5-HIS tag (human, UniProt Q14956 23-492)
# T1 construct: Expressed in HEK293; also called GPNMB-V5His; GPNMB-soluble
# T1 sequence: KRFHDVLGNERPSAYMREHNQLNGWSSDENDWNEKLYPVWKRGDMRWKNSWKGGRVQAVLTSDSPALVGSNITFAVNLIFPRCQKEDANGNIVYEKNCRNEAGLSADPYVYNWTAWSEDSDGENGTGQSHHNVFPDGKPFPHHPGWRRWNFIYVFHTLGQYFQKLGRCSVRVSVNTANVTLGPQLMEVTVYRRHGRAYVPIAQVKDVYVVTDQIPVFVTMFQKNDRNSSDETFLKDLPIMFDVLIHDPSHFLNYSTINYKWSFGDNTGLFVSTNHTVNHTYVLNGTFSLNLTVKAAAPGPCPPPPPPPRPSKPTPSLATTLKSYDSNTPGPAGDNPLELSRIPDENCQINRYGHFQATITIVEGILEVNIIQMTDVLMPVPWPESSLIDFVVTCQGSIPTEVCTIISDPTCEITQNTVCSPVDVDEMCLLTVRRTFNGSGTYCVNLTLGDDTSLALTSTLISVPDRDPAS
# T2: GPNMB (CG56972) as expressed by human cell lines (human, UniProt Q14956 23-492)
# T2 construct: Endogenous or transfected full-length protein on cells (FACS, killing assays) or in cell lysates (immunoprecipitation, blot); also called native GPNMB protein
# T2 sequence: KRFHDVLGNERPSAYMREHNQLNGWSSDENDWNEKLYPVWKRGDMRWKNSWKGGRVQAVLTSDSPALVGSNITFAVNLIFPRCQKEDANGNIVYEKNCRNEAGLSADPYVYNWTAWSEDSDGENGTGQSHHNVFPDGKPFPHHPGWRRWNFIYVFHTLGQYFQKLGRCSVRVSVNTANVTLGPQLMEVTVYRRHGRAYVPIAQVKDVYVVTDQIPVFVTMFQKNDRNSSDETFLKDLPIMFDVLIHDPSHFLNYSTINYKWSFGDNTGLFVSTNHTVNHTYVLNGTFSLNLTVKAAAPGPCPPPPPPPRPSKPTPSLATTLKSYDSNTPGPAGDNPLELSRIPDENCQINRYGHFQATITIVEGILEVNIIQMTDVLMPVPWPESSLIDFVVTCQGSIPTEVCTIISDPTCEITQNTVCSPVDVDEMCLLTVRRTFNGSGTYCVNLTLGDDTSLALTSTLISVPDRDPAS
# B1: CR011 single chain antibody (CR011 scFv), VL-L4-VH, Flag tag (scFv)
# scFv: EIVMTQSPATLSVSPGERATLSCRASQSVDNNLVWYQQKPGQAPRLLIYGASTRATGIPARFSGSGSGTEFTLTISSLQSEDFAVYYCQQYNNWPPWTFGQGTKVEIKLSADDAKKDAAKKDDAKKDDAKKDLQVQLQESGPGLVKPSQTLSLTCTVSGGSISSFNYYWSWIRHHPGKGLEWIGYIYYSGSTYSNPSLKSRVTISVDTSKNQFSLTLSSVTAADTAVYYCARGYNWNYFDYWGQGTLVTVSSASDYKDDDDK
# notes: also called CR011 scFv monomer; mono-specific anti-GPNMB scFv
# B2: Mab1.2.2 (antibody, IgG2, V domains shown)
# VH: ITLKESGPTLVKPTQTLTLTCTFSGFSLSAGGVGVGWIRQPPGKALEWLALIYWNDDKRYSPSLRSRLTITKDTSKNQVVLTITNMDPVDTATYYCAHSHYDYDWGSYFDYWGQGTLVTVSS
# VL: DIVMTQTPLSLPVTPGEPASISCRSSQSLLDSDDGNTYLDWYLQKPGQSPQLLIYTLSYRASGVPDRFSGSGSGTDFTLNISRVEAEDVGVYYCMQRIEFPITFGQGTRLEIKR
# notes: Fully human hybridoma antibody (XenoMouse XMG2, IgG2 kappa); also called CR011.1.2.2
# B3: Mab1.10.2 (antibody, IgG2, V domains shown)
# VH: QVQLQESGPGLVKPSETLSLTCTVSGDSISNYYWSWIRQPPGKGLEWIGYFYYSGSTNYNPSLKSRVTISVDTSKNQFSLKLSSVTAADTAVYYCARDRGWADYWGQGTLVTVSS
# VL: EIVLTQSPGTLSLSPGERATLSCRTSQSISSSYLAWYQQKPGQVPRLLIYGASSRATGIPDRFSGSGSGTDFTLTISRLEPEDFAVYYCQQYGSSITFGQGTRLEIKR
# notes: Fully human hybridoma antibody (XenoMouse XMG2, IgG2 kappa)
# B4: Mab2.22.1 (antibody, IgG2, V domains shown)
# VH: QVQLEQSGPGLVKPSQNLSLTCTVSGGSISSGGYFWSWIRQHPGKGLEWIGYIYYSGNTYYNPSLKSRVTISVDTSKNQFSLKLSSVTAADTAVYYCARDYYYDTSGFSYRYDWYYGMDVWGQGTTVTVSS
# VL: DIQLTQSPSSLSASVGDRVTITCRASQGIRNDLGWYQQKPGKAPKRLIYAASSLQNGVPSRFSGSGSGTEFTLTISSLQPEDFATYYCLQHNTYPAFGQGTKVEIKR
# notes: Fully human hybridoma antibody (XenoMouse XMG2, IgG2 kappa); also called CR011.2.22.1
# B5: CR011-vcMMAE (antibody, human IgG2)
# heavy: QVQLQESGPGLVKPSQTLSLTCTVSGGSISSFNYYWSWIRHHPGKGLEWIGYIYYSGSTYSNPSLKSRVTISVDTSKNQFSLTLSSVTAADTAVYYCARGYNWNYFDYWGQGTLVTVSSASTKGPSVFPLAPCSRSTSESTAALGCLVKDYFPEPVTVSWNSGALTSGVHTFPAVLQSSGLYSLSSVVTVPSSNFGTQTYTCNVDHKPSNTKVDKTVERKCCVECPPCPAPPVAGPSVFLFPPKPKDTLMISRTPEVTCVVVDVSHEDPEVQFNWYVDGVEVHNAKTKPREEQFNSTFRVVSVLTVVHQDWLNGKEYKCKVSNKGLPAPIEKTISKTKGQPREPQVYTLPPSREEMTKNQVSLTCLVKGFYPSDIAVEWESNGQPENNYKTTPPMLDSDGSFFLYSKLTVDKSRWQQGNVFSCSVMHEALHNHYTQKSLSLSPGK
# VL: not shown
# modifications: vcMMAE (maleimidocaproyl-valine-citrulline-monomethylauristatin E) on cysteine thiols of reduced disulfides, about 4 per antibody; positions not given
# B6: Mab2.10.2 (antibody, IgG2, V domains shown)
# VH: QLVESGGGVVQPGRSLRLSCAASGFAFSSYGMHWVRQAPGKGLEWVAVISYDGNNKYYADSVKGRFTISRDNSKNTLYLQMNSLRAEDTAVYYCARDLVVRGIRGYYYYFGMDVWGQGTTVTVSS
# VL: not shown
# notes: Fully human hybridoma antibody (XenoMouse XMG2, IgG2 kappa); also called CR011.2.10.2
# B7: Mab1.7.1 (antibody, IgG2, V domains shown)
# VH: QVQLQESGPGLVKPSQTLSLTCTVSGGSISSANYYWTWIRQHPGKGLEWIGYIYYSGSTYCNPSLKSRVIISVDTSKNQFSLKLSSVTAADTAVYYCARGYNWNYFDYWGQGTLVTVSS
# VL: DIVMTQSPATLSVSPGERATLSCRASQSVSSNLAWYQERPGQAPRLLIYGASTRATGIPARFSGSGSGTEFTLTISSLQSEDFAVYYCQQYNKWPPWTFGQGTKVEIER
# notes: as for B3
# Legend:
# [1] = molecular target: T3, CD3 on purified human T cells (human, UniProt P07766 23-207; P04234 22-171; P09693 23-182); assay: flow cytometry on purified human T cells, mouse anti-FLAG mAb and PE-conjugated goat anti-mouse Ig F(ab')2
# T3 construct: also called human CD3 molecules
# [2] = molecular target: T1, Recombinant human GPNMB extra-cellular …; assay: ELISA on plates coated with recombinant GPNMB (His and V5 tagged), detection with anti-FLAG M2-HRP
# Method: Plates were then blocked and washed. […] Plates were incubated for 1 h and washed. HRP-conjugated anti-FLAG M2 mAb (Sigma, St. Louis, Mo.) was added into the wells for 1 h, washed and the reaction developed with the TMB substrate reagent as described by the manufacturer (Pharmingen, San Jose, Calif.).
# [3] = molecular target: T1, Recombinant human GPNMB extra-cellular …; assay: Biacore, mAb captured on protein A
# Method: Certain Hybridoma cell supernatants (29) were analyzed for binding to GPNMB by BiaCore® 2000 biosensor equipped with a research-grade CM5 sensor chip. A 1:25 dilution of cell supernatant was passed over a protein A surface for 5 min followed by washing the surface for 10 mins. […] GPNMB binding data for each mAb was normalized for the amount of mAb captured on each surface. Normalized, drift corrected responses were also measured. The sensorgrams were fit to a simple 1:1 kinetic model.
# [4] = molecular target: T2, GPNMB (CG56972) as expressed by human …; assay: FACS on UACC-62 cells, antibody 1 ug/mL
# Method: The specificity of anti-GPNMB antibodies to cell membrane-bound GPNMB protein expressed by melanoma cancer cell line, UACC-62 was analyzed by FACS analysis. […] Cells were washed twice with PBS (Ca and Mg free), incubated with Versene at 37° C. until cells detached, counted and aliquoted at 1 million cells per assay tube. Cells were then washed twice and resuspended in ice-cold FACS buffer (0.01 M HEPES, 0.15M NaCl, 0.1% NaN₃ and 4% FBS). Primary antibody at 1 μg/mL was added to the cells. Cells were incubated on ice for 30 min, washed 2-3 times and resuspended in 1 mL of ice-cold FACS buffer. R-PE-conjugated goat anti-human antibody (Jackson ImmunoResearch Laboratory) at 1:100 dilution was added and cells were incubated on ice for 30 min. After washing 3 times with 1 mL of ice-cold FACS buffer, cells were fixed with 0.5-1 mL of 1% formaldehyde in PBS and analyzed by flow cytometry.
# [5] = molecular target: T2, GPNMB (CG56972) as expressed by human …; assay: cell-based or functional assay
# [6] = molecular target: T2, GPNMB (CG56972) as expressed by human …; assay: cell-based or functional assay; remark: listed apart in the source
# [7] = molecular target: T2, GPNMB (CG56972) as expressed by human …; assay: cell-based or functional assay; remark: listed apart in the source
# [8] = molecular target: T2, GPNMB (CG56972) as expressed by human …; assay: cell-based or functional assay; remark: listed apart in the source
# [9] = molecular target: T2, GPNMB (CG56972) as expressed by human …; assay: cell-based or functional assay; remark: listed apart in the source
# [10] = molecular target: T2, GPNMB (CG56972) as expressed by human …; assay: cell-based or functional assay; remark: listed apart in the source
# T3 sequence (P07766 23-207 limits assumed, chain 1 of 3): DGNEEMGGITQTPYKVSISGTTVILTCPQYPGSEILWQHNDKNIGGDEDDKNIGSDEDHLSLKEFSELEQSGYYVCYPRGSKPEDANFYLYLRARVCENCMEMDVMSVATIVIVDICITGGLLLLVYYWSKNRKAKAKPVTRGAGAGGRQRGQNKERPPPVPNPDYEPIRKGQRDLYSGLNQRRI
# T3 sequence (P04234 22-171 limits assumed, chain 2 of 3): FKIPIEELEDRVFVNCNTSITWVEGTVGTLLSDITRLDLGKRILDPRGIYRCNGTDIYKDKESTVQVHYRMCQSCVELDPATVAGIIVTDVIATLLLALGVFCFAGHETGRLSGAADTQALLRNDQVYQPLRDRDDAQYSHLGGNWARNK
# T3 sequence (P09693 23-182 limits assumed, chain 3 of 3): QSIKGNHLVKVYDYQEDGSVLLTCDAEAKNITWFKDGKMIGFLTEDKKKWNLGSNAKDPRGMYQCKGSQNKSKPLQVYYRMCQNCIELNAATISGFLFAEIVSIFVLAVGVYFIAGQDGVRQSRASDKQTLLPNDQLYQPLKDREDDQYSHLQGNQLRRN
binder,measurement,setting,value
B1,binding result,[1],no binding (tested: 5 ug/sample/100 ul)
same,binding result,[2],binds
B2,Kd,[3],96 nM
same,koff,[3],0.00089 s⁻¹
same,kon,[3],9260 M⁻¹ s⁻¹
same,Geo Mean Ratio (relative to pK16),[4],1.24 ratio
B3,Kd,[3],118 nM
same,koff,[3],0.000466 s⁻¹
same,kon,[3],3960 M⁻¹ s⁻¹
B4,Geo Mean Ratio (relative to pK16),[4],4.46 ratio
same,killing of UACC-62 cells with saporin-conjugated secondary antibody (colony count),[5],> 70%
B5,"CR011-AE IC50, clonogenic assay, SF-268 (weakly expressing)",[6],> 1.5 µg/mL
same,"CR011-AE IC50, clonogenic assay, SF-539",[6],1.03 µg/mL
same,"CR011-AE IC50, clonogenic assay, SK-MEL-2",[6],0.303 µg/mL
same,"CR011-AE IC50, clonogenic assay, SNB-78",[6],0.449 µg/mL
same,"CR011-AE IC50, clonogenic assay, U-118-MG",[6],1.25 µg/mL
same,"CR011-AE IC50, clonogenic assay, XF-498",[6],0.216 µg/mL
same,"IC50 of colony formation (clonogenic assay, % of control, 96 h) on HEK293 cells transfected with GPNMB (circles); Vector + CR011-vcMMAE (diamonds) is printed as >1000",[7],0.3 µg/mL
same,"IC50 of colony formation (clonogenic assay, % of control) on SK-Mel-2 cells transfected with control siRNA (circles)",[8],0.22 µg/mL
same,"IC50 of colony formation (clonogenic assay, % of control) on mock-transfected SK-Mel-2 cells (diamonds)",[8],0.33 µg/mL
same,"Clonogenic Assay with 1.15.1-AE IC50, SR",[9],296 ng/mL and 2000 pM
same,"Clonogenic Assay with 1.15.1-AE IC50, THP-1",[9],207 ng/mL and 1400 pM
same,"Clonogenic Assay with 1.15.1-AE IC50, U937",[9],340 ng/mL and 2400 pM
same,"Clonogenic Assay with 1.15.1-AE IC50, G361",[10],1050 ng/mL and 6500 pM
same,"Clonogenic Assay with 1.15.1-AE IC50, RPMI-7951",[10],972 ng/mL and 6000 pM
same,"Clonogenic Assay with 1.15.1-AE IC50, SK-Mel 2",[10],111 ng/mL and 750 pM
same,"Clonogenic Assay with 1.15.1-AE IC50, SK-Mel 5",[10],237 ng/mL and 1600 pM
same,"Clonogenic Assay with 1.15.1-AE IC50, UACC-62",[10],697 ng/mL and 4300 pM
same,"Clonogenic Assay with 1.15.1-AE IC50, UACC-257",[10],825 ng/mL and 5500 pM
same,"Clonogenic Assay with 1.15.1-AE IC50, WM-266-4",[10],345 ng/mL and 2300 pM
B6,Geo Mean Ratio (relative to pK16),[4],2.6 ratio
same,killing of UACC-62 cells with saporin-conjugated secondary antibody (colony count),[5],> 70%
B7,Kd,[3],122 nM
same,koff,[3],0.00144 s⁻¹
same,kon,[3],11800 M⁻¹ s⁻¹
